# Assay results reported in the nanobody polyreactivity screen of Harvey et al. (2022).
# Experiment: yeast display, Sf9 membrane polyspecificity reagent, FACS + sequencing; frameworks hold sequencing errors
# Procedure, shortened: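 In a synthetic yeast display library (Saccharomyces cerevisiae BJ5465), nanobody expression was induced with galactose for 36–48 hours. FACS gates were set low and high (top ~1%) using anti-HA fluorescence for expression and streptavidin fluorescence for binding of the Sf9 membrane reagent. Each polyreactivity label is drawn from the gate of origin.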
row,Sequence,polyreactivity (PSR sort gate)
1,QDQLVESGGGLVQAGGSLRLSCAASGGIFLGNAMGWYRQAPGKERELVAAISFSGGSTYYADSVKGRFTISRDNAKNTVYLQMNSLKPEDTAVYYCAAAWNRGKYNYYYWGQGTQVTVSS,high polyreactivity
2,QVQLVESGGGLFQAGGSLRLSCAASGGIFVDNAMGWYRQAPGKERELVAAISWSGGSTYYADSVKGRFTISRYHAKNTVYLQMNSLKPEDTAVYYCAKVYVEDEGYQWADYDYWGQGTQVTVSS,low polyreactivity
3,QVQLVETGGGLVQAGGSLRLSCAASGSIFVPYGMGWYRQAPGKERELVAAIRKRGSSTYYADSVKWRFTNSRDNAKNTVYLQMNSLKPEDTAVYYCASTWVSVWYRYDYWGQGTQVTVSS,high polyreactivity
4,QVQLVESGGGLVQAGGSLRLSCAASGRIFVRNALGWYRQAPGKERELVAGINSGGGTTYADSVKGRFTISRDNAKNTVYLQMNSLKPEDTAVYYCAAGYWTRYWSWVDYWGQGTQVTVSS,high polyreactivity
5,QVQLVESGGGLVQAGGSLRLSCAASGRTFGRYAMGWYRQAPGKERELVATITSGGSTNYADSVKGRFTISRDNAKNTVYIQMKSMKPEDTAVYYCAAEFSPSRWAYSEGALRYYYWGQGTQVTVSS,low polyreactivity
6,QVQLVESGGVLVQAGGSLRLSCAASGSIFILYAMGWYRQAPGKEREFVAAITYRGGSTKYADSVKGRFTISRDNAKNNVYLQMNRLKPEDTAVYYCAAGGYWRSPWGSVSRYGYWGQGTQVTVSS,high polyreactivity
7,QVQLVESGGCLVQAGGSLRLSCAASGFTFVGYAMGWYRQAPGKERELVAAITSSGGSTYYADSVKGRFTISRDNAKNTVYLQMNSLKPEDTAVYYCAAPAPVLSTQKRFDSWGQGTQVTVSS,low polyreactivity
8,QVQLVESGGGLGKAGGSLRLSCAASGFIFYWNAMGWYRQAPGKEREFVATITWSGGSTYYADSVKGRFTISRDYAKNTVYLQMNSLKPEDTAFYYCAAEAPVQPFYVFNSGIYELDYWGQGTQVTVSS,low polyreactivity
9,QVQLVESGGGLVQAGGSLRLSCAASGSTFWFNAMGWYRQAPGKERELVAAIDSGGGTYYADSVKGRFTISRDNAKNTAYLQMNSLKPEDTAVFYCNASHPPKAELDYWGQGTQVTVSS,low polyreactivity
10,QVQLQESGGGLVQAGGSLRLSCAASGSIFYVYGMGWYRQAPGKERELVAVINAGTNTNYADSVRGRFTISRDNAINSVLLQMNSLKPEDTAVYYCADDGNGYQAHEYWGQGNQVTVSS,high polyreactivity
11,QVQLVESGGGLVQAGGSLRLSCAASGRIFFFNAMGWYRQAPGKERELVARITRGGSTNYADSVKGRFTISRDNAKNTVYLQMNILKPEDTAVYYCARDGYATTNARYGYDYWGQGTQVTVSS,low polyreactivity
12,QVQLVESGGGLVQAGGSLRLSCAASGRTFWSNAMGWYRQAPGKERELVAAISTGAGSTYYADSVKGRFTISRDNAKNTVYLQMNSLKPEDTAVYYCAAVYNGALYTYYYWGQGTQVTVSS,high polyreactivity
13,QVHLVESRGGLVQAGGSLRLSCAASGMGWNRHAPGKERELVATIPWSDGITYADSVKGRFTISRDNAKNTVYLQMNSLKQEVTAVYYCNADWDQTGTVFFSFGLREMDSWGQGTQVTVSS,low polyreactivity
14,QVQLVESGGGLVQAGGSLRLSCAASGSIFVHNAMGWYRQAPGKERELVAAITWSGGSTYYADSVKGRFTISRDNAKNTVYLQMNSLKPEDTAVYYCAAEDVAAQWAYESPTSYWYYYIYEYWGQGTQVTVSS,low polyreactivity
15,QVQLVESGGGLVQAGGSLRLSCAASGITFPGNAMGWYRQAPGTERELVAVIRKSGTSTYYADSVKGRFTISRDNAKNTVYLQMNSLKPEDTAVYYCAAGGPSTLDDYWGQGTQVTVSS,low polyreactivity
16,QVQLVESGGGLVHAGGSLRLSCAASGFTFVFYVMGWYRQAPGQERELVAGISGRGASTYYADSVKGRFTISRDNAKNTVYLQMNSLIPEDTAVYYCNAVHWGGTYWGLDYWGQGTQVTVSS,low polyreactivity
17,QVQLVETGGGLVQAGGSLRLSCAASGRIFYYYAMGWYRQAPGKERELVAAITRGGGTYYADSVKGRFTISRDNAKNTVYLQMYSLKPEDTAVYYCAKRGPPESHHPYRYRFDYWGQGPQVTVSS,low polyreactivity
18,QVQLVESGGGLVQAGGSLRLSCAASGIIFTKYVMGWYRQAPGKERELVAAINTDGGSTRYADSVKGRFTISRDNAKNTVYLQMNSLKPEDTAVYYCAAVSSRRPGYEYYYWGQGTQVTVSS,high polyreactivity
19,QVHLQESGAGLVQVGGSQRLSCAASGNIFYNYAMGWSRHAQGKEREFDATINHGTSINYADSVKGRFTISRDNAKNNVYLQMNCLKPEDTAVYYCAADLSWTDNLFYWGQGTQVSVSS,low polyreactivity
20,QVQLVESGGGLVQAGGSLRLSCAASGRTFYDNTMGWYRQAPGKERELVAAISRGGSTYADSVEGRFTISRDNAKNTVYLQMNSLKPEDTAVYYCNKRSITTEYGYWGQGTQVTVSS,low polyreactivity
21,QVHLVESGGGLVQAGGSLRLSCAASGRIFGEYAMGWYRQAPGKERELVAAINSCGTSTNYADSVKGRLTFSRDNAKNTVYLQMNSLKPEDTAVYYCNAVGTYRPEYDSWVQGTQVTVSS,low polyreactivity
22,QVQLVESGGGLVQAGGSLRLSCAASGRIFAWNDMGWYRQAPGKERELVAAITSGGSTYYADSVKGRFTISRDNAKNTVYLQMNSLKPEDTAVYYCAAEVYVPDYFQHKFDVEYEYWGQGTQVTVSS,low polyreactivity

row,Sequence,polyreactivity (PSR sort gate)
1,QVQLVESGGGLVQAGGSLRLSCAASGSIFEWYAMGWYRQAPGKDRELVADITYNGGSTYYADSVKGRFTISRDNAKNTVYLQMNSLKPEDTAVYYCAADYFVQVPDYYYASEYGYWGQGTQGTVSS,low polyreactivity
2,QVQLVESAAGLVQAGASHRLSCAPSGRIFVNYAMGGYRQAPGKERELVAAITSDGSTSYADSVKGRFTISRDNAKNTVYLQMNSLKPEDSADYYCAKDFFEHSPVSLTYSSSKYDYWGQGTQVTVSS,low polyreactivity
3,QVQHVESARGLVPAGGSLRLSCAASGFTVIRYAMGRYRQAPGKERELVAAIRGTGTSTYYADSVKGRFTISRDIAKNTVYLQLNSLKPEDTAVYYCNKVAGRSPYTRYDYWGQGTQVTVSS,low polyreactivity
4,QVQLVESGGGLVQAGGSLRLSCAASGSTLASYAMGWYRQAPGKERELVAVIDSGGSTYYADSVKGRFTISRDNAKNTVYLQMNSLKPEDTAVYYCAAGWEFSGVLTLFGYWGQGTQVTVSS,low polyreactivity
5,QVQLVESGGGLVQAGGSLRLSCAASGSTFVRYAMGWYRQAPGKERELVASISSSGSTYYADSVKGRFTISRDNAKNTVYLQMNSLKPEDTAVYYCAKQYGGRYGYWGQGTQVTLSS,low polyreactivity
6,QVQLVESGGGLVQAGGSLRLSCAASGFTFYYYTLGWYRQAPGKVRELVARITTRGTSTYYADSVKGRFRISRDTPKNTVYLPMNSLKPEDTAVYYCAAQVGRGYEVYAVYKYGYWGQGTQVTVSS,high polyreactivity
7,QGQLVESGGGLVQAGGSLRLRCAASGRTFYTYAMGWYRQAPGKERELVATITSGGSTYADSVKGRFTISRDNAKNTVYLQMNSLKPEDTAVYYCARGYYKPSVGKSKRVGGNYWGQGTQVTVSS,high polyreactivity
8,QVQLVESGGGLVQAGGSLRLSCAASGYTLRPNGMGWYRQAPGKERELVAAISSGGSTYYADSVKGRFTISRDNAKNTVYLQMNSLKPEDTAVYYCAAEYWYDYWGQGTQVTVSS,low polyreactivity
9,QVQLVESGGGLVQAGGSLRLSCAASGSIFGYNAMGWYRQAPGKERELVAAISNDGDNTYYADSVKGRFTISRDNAKNTVYLQMNSLKPEDTAVYYCATEYPLTYAYYYYDGGDYWGQGTQVTVSS,low polyreactivity
10,QVQLVESGGGLVQAGGSLRLSCAASGSTFWRYAMGWYRQAPGKERELVAAISRSGGSTYYADSVKGRFTISRDNAKNTVYLQMNSLKPEDTAVYYCAAQYGGKYKLYSDSYAMDYWGQGTQVTVSS,high polyreactivity
11,QVQLVESGGGLVQGGGSLRLSCAASGRIFDYYTMGWYRPAPGKERELVAAISSGGSTNYADYVKGRFTISRDNAKNTVYLQMNSLKPEDTAVYYCNVDLTTVGHWYYYRPGYDYWEQGTQVTVSS,low polyreactivity
12,QVQLVESGGGLVQAGGSLRLSCAASGRTFVNNAMGWYRQAPGKERELVAAISRSGGSTYYADSVKGRFTISRDNAKNTVYLQMNSLKPEDTAVYYCNKASNVRGYEYWGQGTQVTVSS,high polyreactivity
13,QVQLVESGGGLVQAGGSLSLICAASGGTFERYAMGWYRQAPGKERELVAAISRSGGRTYYADSVKGRFTISRDNAKNSVYLQMNSLKPEDTAVYYCNSLGRYRMDYWGQGTQVTVSS,high polyreactivity
14,QVQLVESGGGLVQAGGSHRLSCAASGSTFGQNAMGCYRQAPGKERELVAAITRRGVSTYYADSVKGRFTISRDNAKNTVYLQMNSLKPEDTAVYYCAKRYHPNSPYDYWGQGTQVTVSS,low polyreactivity
15,QVQLVESGGGLVQAGGSLRLSSAASGSTFQIYTMGWSRQAPGKESELVAAITNGGGSTYYADSVKGRFTISRDNAKNTVYLQMNSLKPEDTAVYYCAAEQRYPLIILYDDWGQGTQVTVSS,low polyreactivity
16,QVQLVESGGGFVQAGGSLRLSCAASGSTFGTYAMGWYRQAPGKERELVAAISWSGGSTYYADSVKGRFTISRDNAKNTVYLQMNSLKPEDTAVYYCNATSSTPPGMDSWGQGTQVTVSS,low polyreactivity
17,QVQLVESGGGLVQAGGSLRLSCAASGYTFYAMGWYRQAPGKERELVAAITYRGARTYYADSVKGRFTISRDNAKNTVYLQMNSLKPEDTAVYYCNADYWGQGTEVTVSS,low polyreactivity
18,QVQLVQSGGCLVQAGGSLRLSCAASGRIFGYYAIGWYRQAPGKERELVAGISRSGGSTYYADSVKWRFTISRDKAKNTVYLQMNSLKPEDTAVYYCAARFNGQTYYYWGQGTQGTVSS,high polyreactivity
19,QVQLVESGGGLVQAGGSLRLSCAASGITFYAYAMGWYRQAPGKERELVAAITSSGSSTYYADSVKGRFTISRDNAKNTVYLQMISLKPEDSAVYYCAARRYRSVRNDYWGQGTQVTVSS,high polyreactivity
20,QVQLVESGGGLVQAGGSLRLSCAASGSTFYKYAMGWYRQAPGKERELVAAISRGGSTYYADSVKGRFTISRDNAKNTVYLQMNSLKPEDTAVYYCAAETVSYYSKYDYWGQGTQVTVSS,low polyreactivity
21,QVQLVESGGGLVQAGGSLRLSCAASGNIFYQYAMGWYRQAPGKEREFVAAISISGTSTYADSVKGRFTISRDNAKNTVYLQMNSLKPEDTAVYWGQGTQVTVSS,low polyreactivity
